Test results from the nanobody polyreactivity screen of Harvey et al. (2022).

Experiment: yeast display, Sf9 membrane polyspecificity reagent, FACS + sequencing; frameworks hold sequencing errors
Procedure, shortened: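 Genes from sorted yeast were amplified by colony PCR, read by MiSeq 2 × 250 sequencing and filtered on CDR length. These cells carried a synthetic nanobody library in Saccharomyces cerevisiae BJ5465 and were sorted by FACS into low and high (top ~1%) gates on anti-HA and streptavidin fluorescence. Polyreactivity is labelled according to the gate of origin.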

Sequence | polyreactivity (PSR sort gate)
QVQLVESGGGLVQAGGSLRLSCAASGRTFRENAMGWYRQAPGKERELVAAAISSGDGTNYADSVKGRFTISRDNAKNTVYLQMNSLKPEDTAVYYCAADGPRDSYDYWGQGTQVTVSS | low polyreactivity
QVQLVESGGGLVQAGGSLRLSCAASGSIFASNAMGWYRQAPGKERELVAAITDSGSTNYADSVKGRFTISRDNAKNTVYLQMNSLKREDTAVYYCDWSYYVWRRYRVARYDSWGQGTQVTVSS | low polyreactivity
QVQLVESGGGLVQAGGSLRLSCAASGSIFRSDPMGWYRQAPGKEREFVASITYRGGRTYYADSVKGRFTISRDNAKNTVSLQLNSLKPEDSAVYYCAARTRAGAWTSKYHDYWGQGTQVTVSS | high polyreactivity
QVQLVESGGGLVQAGGSLRLSCAASGSIFAVNAMGWYRQAPGKERELVAAISWNGGSTYYADSVKGRFTISRDNAKNTVYLQMNSLKPEDTAVYYCATVRYKYYWSYYRYGYWGQGTQVTVSS | high polyreactivity
QVQLVESGGVLVQAGGSLRLSCAASGFIFVRYAMGWYRQAPGKERELVAAITSSDSNTNYADSVKGRFTISRDNAKNTVYLQMNSLNPEDTAVYYCNARIYTRRYVPHYGFNYWGQGTQVTVSS | low polyreactivity
QVQLVESGGGLDQSGGSLRLTCAASGFTFVINDMGRYIHAPGKEMEWVADITSGGDTYYADSVKGRFTISRDNAKNTVYLQSNRLKPEDTAVYYCAADIYPDWIYLLYGYWGQGTQVNVSS | low polyreactivity
QVQHVESGGGLVQAGGSIRLSGAASGRIILGYDMGWYRQPPGKDRELVAAINSVASTNYADSVKGRFTISRDNAKNTVYLQMNSLKPEDTAVYYCAAVYFLVEADLPAYDYWGQGTQVTVSS | low polyreactivity
QVQLVESGGGLVQAGGSLRLSCAASGFYFYSYAMGGYRQAPGKERELVAVISGSGGSTYYADSVKGRFTISRDNAKNTVYLQMNSLKPEDTAVYYCAARNQGNIYGYWGQGTQVTVSS | high polyreactivity
QVQLEESGGGLVQAGGSLRLSCAASGFIFSRNAMGWYRQAPGKERELVAAITGSGARTYYADSVKGRFTISRDNAKNTVYLQMNSLKPEDTAVYYCNADARGGIYFRGVKFDYWGLGTQVTVSS | high polyreactivity
QVQLVESGGGLVQAGGSLRLSSAASGFILDTNAMGWYRQAPGKERELVSAITKRGIRTYYADSVKGRFTISRDNAQNTVYLQMNSLKPEDTAVYYCNAQRPIATVWHRYDSWGQGTQVTVSS | high polyreactivity
QVQLVESGGGLFQAGGSLRLSCAASGSIYRKYAMGWYRQAPGKERELVATISWNGGRTHYADSVKGRFTISRDNAKNTVYLQMKSLKPEDTAVYYCAAHTRTSGHNYWGQGTQVTVSS | low polyreactivity
QVQLVESGGGLVQAGGSLRLRCAASGRTFWWNAMGWYRQAPGKERELVAGTYSRGGGTYYADSVKGRFTISRDNAKNRVYLQMNRLKAEDTAVYYCASQAPVYRYYYWGQGTQVTVSS | high polyreactivity
QVQLVESGGGLVQAGGSLRLSCAASGSTFQPYAMGWYRQSPGKEREFVATISGSAGSTYYADSVKGRFKISRDNAKNTVYLQMNSLKPEDTAVYYCNADSGWFGYDYWGQGTQVTVSS | low polyreactivity
QVQLVESGGGLVQAGGSLRLSCAASGRTFLRYAMGWSRQAPGTETELVAAISSDGSTNYADSVKGRFTISRDNAKNTVYLQMNSLKPEDTAVYYCDADPQKWYTGYDYWGQGTQVTVSS | low polyreactivity
QVQLVESGGGLVQAGGSLRLSCAASGNTFYRYAMGRYRQAPGKEREFVAGITSRGGSTSYADSVKGRFTISRDSAKNTVYLQMNILKPEDTAVYYCAARYSKVHFAYDYWGQGTQVTVSS | high polyreactivity
QVQLVESGGGLVQAGGSLRLSCAASGLIFKWYGMGWYRQAPGKERELVAAITENGGSTYYADSVKGRFTISRDNAKNTVYLQMNSLKPEDTAVYYCAAETWADWYSEFYWGQGTQVTVSS | high polyreactivity
QVQLVESGVGLVQAGGSLSLSCAASGRLFNYYAMGWYRQAPGKERELVAAISSSGGRTYYADSVKGRFTISRDNAKNTVYLQMNCLKPEDTAVFYCAAYDSLRYSTYDYWGQGTQVTVSS | high polyreactivity
QVQLVESGGGLDQAGGSLRLSCAASGLIFVRYAMGWYRQAPGKERELVATISARGASTYYADSVKGRFTISRDNAKNTVYLQMNSLIPEDTAVYYCANRGYYSRFYSYGYWGQGTEVTVSS | high polyreactivity
QVQLVESGGGLVQAGGSLRLSCAASGRIFVYYAMGWYRQAPGKERELVASISYSGASTYYADSVKGRFTISRDNAKNTVYLQMNSLKPEDTAVYYCATDVRGVDGEDDYWGQGTQVTVSS | low polyreactivity
QVQLVESGGGLVQAGGSLRLSCAASGGIFGYYTRGWYRQAPGKEREVVAAISRRGGSTYYADSVKGRFTISRDNAKNTVYLQMNSLKPEDTAVYYCAAGLSSGGTHYDYWGQGTQVTVSS | high polyreactivity
QVQLVESGGGLDQAGGSLPLSCAASGSIFYVYTMGTYRQAPGKERELVAAISFRSGSTYYADSVKGRFTISRDNAKNTVYLPMNSLKPEDTAVYYCAKPIPRGRNQLFNYWGQGTEVTVSS | high polyreactivity

Sequence | polyreactivity (PSR sort gate)
QVQLVESGGGLVQAGGSLRLSCAASGSTFTYYAMGWYRQATGKETELVAAINIGGGGTYYADSVKGRFTISRDNAKNTVYLQMKSLKPEYTAVYYCATDIYFENGFGYWGQGTQVTVSS | low polyreactivity
QVQLVESGGGLVQAGGSLRLSCAASGRTFYRNARGWYRQAPGKERELVAVISSSGVRTYYADSVKGRFTISRDNAKNTVYLQRNSQKPEDTAVYYCAADSNSYYRGFDYWGQGTQVTVSS | high polyreactivity
QVQLVESGGGLVQAGGSLRLSCAPSGRNFWYYGMVWYRPAPGRERELVAAISRSGGRTSYADSVKGRFTISRDNAKNTVYLQMNSLKPEDTAVYYCATDGYYRYGYWGQGTQVTVSS | high polyreactivity
QVQLVESGGGLVQAGGSLRLSCAASGSIFYLNAMGWYRQAPGKERELDAAIRWSGGSTRYADSVKGRFTISRDNAKNTVYLQMNSLKPEDTAVYYCAKYNPVLVYHWWYYYWGQGTQVTVSS | high polyreactivity
QVQLVESGGGLVQAGGSLRLSCAASGFTVGYNAMGWYRQAPGKERELVAAIDKRGDSTYADSVKGRFTISRDNAKNTVYLQMNSLKPEDTAVYYCAADSDSKYNYGFLWDTYESWGQGTQVTVSS | low polyreactivity
QVQLVESGGGLVQAGGSLRLICAASGRIFGIYAMGWYRQAPGKERELVASITGSSGSTNYADSVKGRFTISRDNAKNTVYLQMNSLKPEDTAVYYCAAERGYHGGGSGLYDYWGQGTQVTVSS | low polyreactivity
QVQLVESGGGLVQAGGSLRLSCAASGRINAMGWYRQAPGKERELVAVITLRGGSTYYADSVKGRFTISRDNAKNTVYLQMNSLKPEDTAVYYCAAVYRWPDAKYDYWGQGTQVSVSS | low polyreactivity
QVQLVESGGGLVQAGGSLRLSCAASGSTFEGYAMGWYRQAPGKEMELVAAISSSGGTTNYADSVKGRFTISRDNAKNTVYLQMNSLKPEDTAVYYCAARKYAKYFYHYDYWGQGTQVTVSS | low polyreactivity
QVQLVESGGGLVQAGGSLRLICAASGFIFASYAMGWYRQSPGKEREFVAAITRRGGTTYYADSVNGRFTISRDNAKNTVYLQMNSLKPEDTAVYYCATAHSRPGYVFDYWGQGTQVTVSS | high polyreactivity
QVQLVESGGGLVQAGGSLRLSCAASGRIFTRYTMGWYRQAPGKESELVAAISRSGGSTYYADSVKGRFTISRDNEKNTVYLQMNSLKPEDTAVYYCAAKGPYTYGYGYWGQGTQVTVSS | high polyreactivity
QVQLVESGGGLVQAGGSLRLSCDASGLTFDQYAMGWYRQGPGKERELVAAISGSDSTYYADSVKGRFTISRDNAKNTVYLQMNSLKPEDTAVYYCAASGDYVNIITGERFDARLYDYWGQGTQVTVSS | low polyreactivity
QVQLVESGGGLVQAGGSLRLSCAASGFIFRDNAMGWYRQAPGKERELVAAISKSGGRTYYADSVKGRFTISRDNAKNTVYLQMNSLKPEDTAVYYCAKASRYWSLYYWGQGTQVTVSS | high polyreactivity
QVQLVESGGGLVQAGGSLRLSCAASGFIFQRYAMGWYRQAPGKERELVAAITKSGGSTYYADSVKGRYTISRDNAKNTVYLQMNSLKPEDTAVYYCNAYRYGSYRPHQEDYDYWGQGTQVTVSS | high polyreactivity
QVQLVESGGGLVQAGGSLRLSCAPSGRTFRTNTMGWYRQAPGKESELVAAINWRGGSTYYADSVKGRFTISRDNAKNTVYLQMNSLKPEDTAVYYCNAQQGRYKYSGRYDYWGQGTQVTVSS | low polyreactivity
QLQLVESGRGLVQAGGSLRLSCAPSGRILVLIAMGWYRQATGKERELVADITSGGSTYYADSVKGRFTISRDNAKKTVYLQMNSLKKEDTAVYYCAADWNTYPDYQQSYFVCYEYNYWGQGTQVTVSS | low polyreactivity
QVQLVESCGGLVQAGGSLRLSCAASGRIFSYNPMGWYRQAPGKERELVATITSGDSTNYADSVKGRFTISRDNSKNSVYLQMNSLKQEDTAVYYCATDIYGLPVDYWGQGTQVSVSS | low polyreactivity
QVQLVESGGGLVQAGGSLRLSCAASGRIFPVYAMGWYRQAPGKERELVAAIDYSDGSTYYADSVKGRFTISRDNAKNTVYLQMNSLKPEDTAVYYCAADYDAIYLWWGYDYWGQGTQVTVSS | low polyreactivity
QVQLVESGGGRVQAGGSLRLSCAASGSIFFIYAMGWDRQAPSKEREFVAAISYGGGSTYYADSVKGRFTISRDNAKNTVYLQMNSLKPEDTAVYYCNADVPKSLLLYYPWGYGYWGQGTQVNVSS | low polyreactivity
QVQLVESVGGLVQAGGSLRLSCAASGRTFLNYAMGWYRQAPGKEREFVAAITWRVGTTYYADSVKGRFTISRDNAKNTVYLQMNSLKPEDTAVYYCNAVTARQSSQGEMDYWGQGTQVTVSS | high polyreactivity
QVQLVESGGGLVQAGGSLRLSCAASGFIFRPYTMGWYRQAPGKERELVAAITYSGGSSTYYADSVKGRFTISRDNAKNTVYLQMNSLKPEDTAVSYCATTPDYGHDYWGQGTQVTVSS | low polyreactivity
